Results: paper PMC10146638 (Viruses, 2023)
No end group written: not given here.

Legend:
[1] = molecular target: knob domain of the FAdV-4 Fiber2 protein (Fowl aviadenovirus 4, UniProt A0A1B1SKZ0); experiment: Surface plasmon resonance assay (Biacore X100, CM5 chip); format: binding, fowl adenovirus serotype 4 (FAdV-4)
[2] = molecular target: knob domain of the FAdV-4 Fiber2 protein (amino acids 279–479) (fowl adenovirus serotype 4 (FAdV-4)); experiment: crystal structure
[3] = molecular target: knob domain of the FAdV-4 Fiber2 protein (amino acids 279–479) (fowl adenovirus serotype 4 (FAdV-4)); experiment: SDS-PAGE without boiling
[4] = molecular target: knob domain of the FAdV-4 Fiber2 protein (amino acids 279–479) (fowl adenovirus serotype 4 (FAdV-4)); experiment: SEC; Superdex200 Increase 10/300 GL; protein eluted at 14.78 mL
[5] = molecular target: knob domain of the FAdV-4 Fiber2 protein (amino acids 279–479) (fowl adenovirus serotype 4 (FAdV-4)); experiment: AUC
LMH cells = conditions: 0-200 μM, 24, 48 and 72 h incubation, vs untreated group
[6] = molecular target: knob domain of the FAdV-4 Fiber2 protein (amino acids 279–479) (fowl adenovirus serotype 4 (FAdV-4)); experiment: SPR

Molecule	Kd [1] [nM]	Kd [6] [nM]	further results
MQKHEW [Peptide P25, MQKHEW]	1370		
MQKHCG [Peptide P27, MQKHCG]	572		
knob domain of the FAdV-4 Fiber2 protein (amino acids 279–479) (domain or fragment)			stoichiometry N [2]: 3; stoichiometry N [3]: 3; stoichiometry N [4]: 3; stoichiometry N [5]: 3
QWKIHR [Peptide P6, QWKIHR]	2780		
QWKIEK [Peptide P5, QWKIEK]	1200		
QWKKHI [Peptide P1, QWKKHI]	6160		
WWHEKE [Peptide P15, WWHEKE]			cytotoxic effect (CCK-8) (LMH cells): no cytotoxic effect
MQKKFI [Peptide P30, MQKKFI]	907		
QWKNCK [Peptide P10, QWKNCK]	1020		
QWKARV [Peptide P14, QWKARV]	24000		
QWKARV [peptide P14]		24000	
MQKHEW [peptide P25]		1370	
MQKHCG [peptide P27]		572	
MQKKFI [peptide P30]		907	
WWHEKE [peptide number 15 (P15; WWHEKE)]		1440	
QWKKHI [peptide P1]		6160	
QWKIEK [peptide P5]		1200	
QWKIHR [peptide P6]		2780	
QWKNCK [peptide P10]		1020	
